# B1: 1C4 (murine monoclonal antibody, IgG format) (antibody, V domains shown)
# VH: QIQLVQSGPELKKPGETVKISCKASGYTFTDYGLNWVKQAPGKGLKWMGWINTYSGEPTYNDEFRGRFAFSLETSTITAYLKINNLKNEDTATYFCARGGNWDWYFDVWGAGTTVTVSS
# VL: DIVLTQSPATLSVTPGDNVSLSCRASQIISNNLHWYQQKSHESPRLLIKYASQSISGIPSRFSGSGSGTDFTLSINSVETEDFGMYFCQQSNTWPLTCGSGTKLELN
# Molecular target: SARS-CoV-2 wild-type spike receptor-binding domain (WT-RBD) (SARS-CoV-2, UniProt P0DTC2)
# Test: SPR
# Details: both partners purified
binder,measurement,value
B1,Kd,0.488 nM

# Reference: article PMC12697983 (PLOS Pathogens, 2025)
